Reference: patent publication US20040219514A1, “Caml-binding peptides” (priority 2000, published 2004)

Columns and labels:
CAML = biological target: T1, CAML (Homo sapiens, UniProt P49069); conditions: published reports on human TACI fragments; cited from earlier work
T1 sequence (P49069 1-296): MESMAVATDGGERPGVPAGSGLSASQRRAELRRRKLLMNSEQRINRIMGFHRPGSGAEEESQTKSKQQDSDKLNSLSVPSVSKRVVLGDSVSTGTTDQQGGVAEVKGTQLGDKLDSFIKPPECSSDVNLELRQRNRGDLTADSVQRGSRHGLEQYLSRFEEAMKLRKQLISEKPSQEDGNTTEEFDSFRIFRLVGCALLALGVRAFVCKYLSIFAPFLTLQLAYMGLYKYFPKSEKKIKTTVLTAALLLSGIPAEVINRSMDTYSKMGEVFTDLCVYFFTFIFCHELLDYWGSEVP

U937 cells [1] = experiment: Arachidonic acid release assay; assay type: cell-based, human
Method: (§1) Generation of stable U937 cell lines expressing E3/6.7K U937 human histiocytic lymphoma cells obtained from ATCC (CRL 1593) were maintained in RPMI 1640, 10% FCS, 2 mM L-glutamine, 10 mM HEPES, 100 U/ml penicillin and 100 μg/ml streptomycin in an atmosphere of 5% CO2 and 100% humidity. Cells were transfected with the appropriate construct by using the DMRIE-C cationic lipid reagent available from Life Technologies using the manufacturer's protocol. Transfected cells were maintained in medium containing geneticin G-418 sulphate at a final concentration of 800 μg/ml. Media and supplements were purchased from Life Technologies. Subclones of the transfected cell lines were generated by serial dilution and examined for expression of E3/6.7K by Northern Blotting. The expression of E3/6.7K mRNA was very similar in all the clones examined. All the G-418 resistant cells that survived the selection procedure were pooled and used for the in vitro assays, in order to avoid clonal variations known to arise in U937 cells.
Arachidonic acid release assays. […] After 20 hours of treatment the cells were centrifuged and 100 μl of supernatant out of 500 μl total was mixed with 3 ml scintillation fluid and counted. […] The counts per minute of released [3H] arachidonic acid were expressed as a percentage of the average of total incorporated [3H] arachidonic acid.

U937 cells [2] = experiment: Annexin V-FACS apoptosis assay; assay type: cell-based, human
Method: as §1
Annexin V-FACS apoptosis assay. Annexin V-FITC (PharMingen) was used to determine the binding of Annexin V to externalized phosphatidyl serine. […] One sample of cells was not stained and used to set up the baseline fluorescence. The cells were examined with a fluorescence-activated cell sorter SACS) on a Beckton Dickson FACS Analyzer.

[3] = biological target: T2, amino acids 1 to 201 of CAML (Homo sapiens, UniProt P49069); experiment: Yeast two-hybrid interaction; assay type: binding
T2 construct: subdloning amino acids 1 to 201 of CAML in frame; expressed in transfected cells; host or cells: Saccharomyces cerevisiae AH109
T2 sequence (P49069 1-201): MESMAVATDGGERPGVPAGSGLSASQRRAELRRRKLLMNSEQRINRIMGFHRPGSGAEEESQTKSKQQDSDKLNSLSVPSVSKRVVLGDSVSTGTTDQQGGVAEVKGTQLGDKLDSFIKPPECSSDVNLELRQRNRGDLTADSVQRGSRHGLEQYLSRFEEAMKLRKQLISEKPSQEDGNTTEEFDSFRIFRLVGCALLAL
From the text: (§2) pBD-6.7, a bait vector containing E3/6.7, was constructed by subdloning full length E3/6.7K cDNA in frame into the C terminus of the GAL4 DNA binding domain of vector pGBKT7 (CLONTECH). pAD-CAML was constructed by subcloning full length CAML in frame into the C terminus of the GAL4 activation domain of the prey vector pGADT7 (CLONTECH). pAD-CAML(201) was constructed by subdloning amino acids 1 to 201 of CAML in frame into the C terminus of the GAl4 activation domain of the prey vector pGADT7. The fidelity of the constructs was confirmed by sequencing.
(§3) Yeast Transformation and Selection. p]3D-6.7 and pAD-CAML or pAD-CAML(201) were transformed together into Saccharomyces cerevisiae AH109 using the Lithium Acetate Yeast Transformation procedure as described by Gietz, D., et al. (1992) Nucleic Acids Res., 20:1425. Control cotransformation of p3D-53 /pAD-T and pBD-Lam/pAD-T were also done. pBD-53/pAD-T encode fusions between the GAL4 DNA-BD and AD and murine p53 and SV40 large T-antigen, respectively. p53 and large T-antigen interact in a yeast two-hybrid assay. pBD-Lam encodes a fusion of the DNA-BD with human lamin C and provides a negative control for an interaction with pAD-T. For yeast selection, pBD containing the […] gene was selected on synthetic drop out media lacking tryptophan (SD-T). pAD contains the LEU2 gene and was selected for on SD-L (leucine).
(§4) CAML-Binding with SED. The yeast two hybrid system takes advantage of the GAL4 transcriptional activator which consists of two separable and functionally essential domains: a DNA binding domain and a domain that activates transcription. A bait gene (fragments of the E3/6.7K gene) was expressed as a fusion to the GAL4 DNA-binding domain (ED), while a prey gene (CAML) was expressed as a fusion to the GAL4 activation domain (AD). When bait and prey fusion proteins interact, the BD and AD are brought into proximity, thus activating transcription of reporter genes.

full length CAML [4] = biological target: T3, full length CAML (Homo sapiens, UniProt P49069); experiment: Yeast two-hybrid interaction; assay type: binding
T3 construct: expressed in transfected cells; host or cells: Saccharomyces cerevisiae AH109
T3 sequence (P49069 1-296): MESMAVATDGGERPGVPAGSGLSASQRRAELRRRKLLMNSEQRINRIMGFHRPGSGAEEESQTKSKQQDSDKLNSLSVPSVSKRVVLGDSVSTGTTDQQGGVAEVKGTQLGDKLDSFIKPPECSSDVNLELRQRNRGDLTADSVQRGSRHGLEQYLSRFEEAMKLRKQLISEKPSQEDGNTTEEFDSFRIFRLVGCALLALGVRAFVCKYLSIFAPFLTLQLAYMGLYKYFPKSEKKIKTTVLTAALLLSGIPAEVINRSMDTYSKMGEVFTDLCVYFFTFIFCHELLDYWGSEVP
From the text: as §2, §3, §4

full length CAML [5] = biological target: T4, full length CAML (Mus musculus, UniProt P49070); experiment: Yeast two-hybrid interaction; assay type: binding; conditions: GAL4 bait/prey
T4 construct: expressed in transfected cells; host or cells: Saccharomyces cerevisiae AH109
T4 sequence (P49070 1-294): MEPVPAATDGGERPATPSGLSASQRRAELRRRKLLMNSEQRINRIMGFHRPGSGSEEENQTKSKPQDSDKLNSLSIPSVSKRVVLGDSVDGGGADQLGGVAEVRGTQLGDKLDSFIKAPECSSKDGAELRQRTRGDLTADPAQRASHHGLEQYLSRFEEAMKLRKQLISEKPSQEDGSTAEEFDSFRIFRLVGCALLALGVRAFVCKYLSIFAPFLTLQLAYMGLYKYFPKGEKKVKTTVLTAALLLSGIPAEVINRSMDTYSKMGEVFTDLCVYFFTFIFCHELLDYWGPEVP
From the text: as §2, §3, §4

calcium ions from the ER = experiment: Efflux of calcium ions from the ER; assay type: cell-based; conditions: in the presence of E3/6.7K

B1: amino acids 1-212: fragment of human TACI, amino acids 1-212 (protein, UniProt O14836 1-212, looked up, fragment)
chain: MSGLGRSRRGGRSRVDQEERFPQGLWTGVAMRSCPEEQYWDPLLGTCMSCKTICNHQSQRTCAAFCRSLSCRKEQGKFYDHLLRDCISCASICGQHPKQCAYFCENKLRSPVNLPPELRRQRSGEVENNSDNSGRYQGLEHRGSEASPALPGLKLSADQVALVYSTLGLCLCAVLCCFLVAVACFLKKRGDPCSCQPRSRPRQSPAKSSQDH
CAML-binding (CAML): capable of binding to CAML

B2: amino acids 1-168 of human TACI: fragment of human transmembrane activator and CAML interactor (TACI), amino acids 1-168 (protein, UniProt O14836 1-168, looked up, fragment)
chain: MSGLGRSRRGGRSRVDQEERFPQGLWTGVAMRSCPEEQYWDPLLGTCMSCKTICNHQSQRTCAAFCRSLSCRKEQGKFYDHLLRDCISCASICGQHPKQCAYFCENKLRSPVNLPPELRRQRSGEVENNSDNSGRYQGLEHRGSEASPALPGLKLSADQVALVYSTLG
CAML-binding (CAML): did not occur

B3: 1-233 of human TACI: fragment of human TACI, amino acids 1-233 (protein, UniProt O14836 1-233, looked up, fragment)
chain: MSGLGRSRRGGRSRVDQEERFPQGLWTGVAMRSCPEEQYWDPLLGTCMSCKTICNHQSQRTCAAFCRSLSCRKEQGKFYDHLLRDCISCASICGQHPKQCAYFCENKLRSPVNLPPELRRQRSGEVENNSDNSGRYQGLEHRGSEASPALPGLKLSADQVALVYSTLGLCLCAVLCCFLVAVACFLKKRGDPCSCQPRSRPRQSPAKSSQDHAMEAGSPVSTSPEPVETCSFC
CAML-binding (CAML): capable of binding to CAML

B4: E3/6.7K: 6.7K protein encoded by the adenovirus E3 region; integral membrane protein localized to the endoplasmic reticulum; expressed from transfected Ad2 cDNA (protein)
chain: MSNSSNSTSLSNFSGIGVGVILTLVILFILILALLCLRVAACCTHVCTYCQLFKRWGQHPR
modifications: Adenovirus, Ad2 E3/6.7K
notes: 6.7K protein encoded by the adenovirus E3 region; integral membrane protein localized to the endoplasmic reticulum; expressed from transfected Ad2 cDNA
reduction of release of [3H] arachidonic acid compared to U937neor (U937 cells [1]; U937-E3/6.7K cells, TNF-α and cycloheximide (CHX)): 60%
decrease of [3H] arachidonic acid release compared with U937 cells transfected with vector alone (U937 cells [1]; U937 cells transfected with E3/6.7K cDNA, stimulated with TNF-α): 50%
reduction in apoptosis compared to U937neor (U937 cells [2]; U937-E3/6.7K cells, combination of TNF-α and CHX): 65%
reduction in percentage of apoptotic cells compared with U937neor (U937 cells [2]; cells expressing E3/6.7K, stimulation with TNF-α): 55%
interaction with CAML ([3]; 1-201 residue domain of CAML, GAL4 bait/prey): interacts
growth of yeast on interaction-selective media ([3]; pBD-6.7 and pAD-CAML(201) in S. cerevisiae AH109, SD-LTHX or SD-AHLTX): able to grow on both SD-LTHX or SD-AHLTX
interaction with CAML (full length CAML [4]; full length human CAML, GAL4 bait/prey): interacts
growth of yeast on interaction-selective media (full length CAML [4]; pBD-6.7 and pAD-CAML in S. cerevisiae AH109, SD-LTHX or SD-AHLTX): able to grow on both SD-LTHX or SD-AHLTX
interaction with CAML (full length CAML [5]): interacts
efflux of calcium ions from the ER (calcium ions from the ER): reduced
